Numbered stars: 1 amine (or outer) side, 2 acyl side, 3 side chain; on linkers, the order of the positions; unused ones are H or OH. Bridge positions count the residues as written; N and C are the ends. Side chains are listed from the residue outwards. Ends that are not written are not given here. * marks the point of attachment. C20 diacid = O=C(O)CCCCCCCCCCCCCCCCCCC(=O)*; γGlu = O=C(O)[C@H](CCC(=O)[*:2])N[*:1]; AEEA = NCCOCCOCC(=O)O
T1: human calcitonin receptor (human, UniProt P30988 25-474)
T1 sequence (looked up): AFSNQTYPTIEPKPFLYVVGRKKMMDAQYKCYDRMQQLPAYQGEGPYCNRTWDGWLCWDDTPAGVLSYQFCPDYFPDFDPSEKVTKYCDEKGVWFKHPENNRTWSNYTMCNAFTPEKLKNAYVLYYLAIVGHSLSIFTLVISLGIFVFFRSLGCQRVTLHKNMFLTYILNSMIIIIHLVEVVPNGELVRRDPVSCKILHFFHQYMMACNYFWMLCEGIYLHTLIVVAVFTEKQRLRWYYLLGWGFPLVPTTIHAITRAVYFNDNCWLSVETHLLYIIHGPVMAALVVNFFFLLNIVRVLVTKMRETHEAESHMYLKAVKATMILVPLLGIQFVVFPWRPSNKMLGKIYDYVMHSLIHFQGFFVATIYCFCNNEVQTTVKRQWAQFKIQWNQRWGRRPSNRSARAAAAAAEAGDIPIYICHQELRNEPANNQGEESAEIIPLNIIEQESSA

B1: N^ε1-[2-[2-[2-[[(4S)-4-carboxy-4-(19-carboxynonadecanoylamino)butanoyl]amino]ethoxy]ethoxy]acetyl]-[His14,Arg17,Pro21,Pro27]-h-amylin (peptide)
peptide: K([AEEA-γGlu-C20 diacid])CNTATCATQRLAHFLRHSSPNFGAIPSSTNVGSNTY-NH2
modifications: disulfide 2-7; N-terminus assumed
SMILES: CC[C@H](C)[C@H](NC(=O)[C@H](C)NC(=O)CNC(=O)[C@H](Cc1ccccc1)NC(=O)[C@H](CC(N)=O)NC(=O)[C@@H]1CCCN1C(=O)[C@H](CO)NC(=O)[C@H](CO)NC(=O)[C@H](Cc1c[nH]cn1)NC(=O)[C@H](CCCNC(=N)N)NC(=O)[C@H](CC(C)C)NC(=O)[C@H](Cc1ccccc1)NC(=O)[C@H](Cc1c[nH]cn1)NC(=O)[C@H](C)NC(=O)[C@H](CC(C)C)NC(=O)[C@H](CCCNC(=N)N)NC(=O)[C@H](CCC(N)=O)NC(=O)[C@@H](NC(=O)[C@H](C)NC(=O)[C@@H]1CSSC[C@H](NC(=O)[C@@H](N)CCCCNC(=O)COCCOCCNC(=O)CC[C@H](NC(=O)CCCCCCCCCCCCCCCCCCC(=O)O)C(=O)O)C(=O)N[C@@H](CC(N)=O)C(=O)N[C@@H]([C@@H](C)O)C(=O)N[C@@H](C)C(=O)N[C@@H]([C@@H](C)O)C(=O)N1)[C@@H](C)O)C(=O)N1CCC[C@H]1C(=O)N[C@@H](CO)C(=O)N[C@@H](CO)C(=O)N[C@H](C(=O)N[C@@H](CC(N)=O)C(=O)N[C@H](C(=O)NCC(=O)N[C@@H](CO)C(=O)N[C@@H](CC(N)=O)C(=O)N[C@H](C(=O)N[C@@H](Cc1ccc(O)cc1)C(N)=O)[C@@H](C)O)C(C)C)[C@@H](C)O
notes: also called compound 69
B2: N^ε1-[2-[2-[2-[[2-[2-[2-[[(4S)-4-carboxy-4-(19-carboxynonadecanoylamino)butanoyl]amino]ethoxy]ethoxy]acetyl]amino]ethoxy]ethoxy]acetyl]-[Arg17,Pro21,Pro27,Arg34 … (peptide)
peptide: K([AEEA-AEEA-γGlu-C20 diacid])CNTATCATQRLANFLRHSSPNFGAIPSSTNVGRNTY-NH2
modifications: disulfide 2-7; N-terminus assumed
SMILES: CC[C@H](C)[C@H](NC(=O)[C@H](C)NC(=O)CNC(=O)[C@H](Cc1ccccc1)NC(=O)[C@H](CC(N)=O)NC(=O)[C@@H]1CCCN1C(=O)[C@H](CO)NC(=O)[C@H](CO)NC(=O)[C@H](Cc1c[nH]cn1)NC(=O)[C@H](CCCNC(=N)N)NC(=O)[C@H](CC(C)C)NC(=O)[C@H](Cc1ccccc1)NC(=O)[C@H](CC(N)=O)NC(=O)[C@H](C)NC(=O)[C@H](CC(C)C)NC(=O)[C@H](CCCNC(=N)N)NC(=O)[C@H](CCC(N)=O)NC(=O)[C@@H](NC(=O)[C@H](C)NC(=O)[C@@H]1CSSC[C@H](NC(=O)[C@@H](N)CCCCNC(=O)COCCOCCNC(=O)COCCOCCNC(=O)CC[C@H](NC(=O)CCCCCCCCCCCCCCCCCCC(=O)O)C(=O)O)C(=O)N[C@@H](CC(N)=O)C(=O)N[C@@H]([C@@H](C)O)C(=O)N[C@@H](C)C(=O)N[C@@H]([C@@H](C)O)C(=O)N1)[C@@H](C)O)C(=O)N1CCC[C@H]1C(=O)N[C@@H](CO)C(=O)N[C@@H](CO)C(=O)N[C@H](C(=O)N[C@@H](CC(N)=O)C(=O)N[C@H](C(=O)NCC(=O)N[C@@H](CCCNC(=N)N)C(=O)N[C@@H](CC(N)=O)C(=O)N[C@H](C(=O)N[C@@H](Cc1ccc(O)cc1)C(N)=O)[C@@H](C)O)C(C)C)[C@@H](C)O
notes: also called compound 95
B3: N^ε1-[2-[2-[2-[[2-[2-[2-[[(4S)-4-carboxy-4-(19-carboxynonadecanoylamino)butanoyl]amino]ethoxy]ethoxy]acetyl]amino]ethoxy]ethoxy]acetyl]-[Arg17,Pro21,Pro27,Pro34 … (peptide)
peptide: K([AEEA-AEEA-γGlu-C20 diacid])CNTATCATQRLANFLRHSSPNFGAIPSSTNVGPNTY-NH2
modifications: disulfide 2-7; N-terminus assumed
SMILES: CC[C@H](C)[C@H](NC(=O)[C@H](C)NC(=O)CNC(=O)[C@H](Cc1ccccc1)NC(=O)[C@H](CC(N)=O)NC(=O)[C@@H]1CCCN1C(=O)[C@H](CO)NC(=O)[C@H](CO)NC(=O)[C@H](Cc1c[nH]cn1)NC(=O)[C@H](CCCNC(=N)N)NC(=O)[C@H](CC(C)C)NC(=O)[C@H](Cc1ccccc1)NC(=O)[C@H](CC(N)=O)NC(=O)[C@H](C)NC(=O)[C@H](CC(C)C)NC(=O)[C@H](CCCNC(=N)N)NC(=O)[C@H](CCC(N)=O)NC(=O)[C@@H](NC(=O)[C@H](C)NC(=O)[C@@H]1CSSC[C@H](NC(=O)[C@@H](N)CCCCNC(=O)COCCOCCNC(=O)COCCOCCNC(=O)CC[C@H](NC(=O)CCCCCCCCCCCCCCCCCCC(=O)O)C(=O)O)C(=O)N[C@@H](CC(N)=O)C(=O)N[C@@H]([C@@H](C)O)C(=O)N[C@@H](C)C(=O)N[C@@H]([C@@H](C)O)C(=O)N1)[C@@H](C)O)C(=O)N1CCC[C@H]1C(=O)N[C@@H](CO)C(=O)N[C@@H](CO)C(=O)N[C@H](C(=O)N[C@@H](CC(N)=O)C(=O)N[C@H](C(=O)NCC(=O)N1CCC[C@H]1C(=O)N[C@@H](CC(N)=O)C(=O)N[C@H](C(=O)N[C@@H](Cc1ccc(O)cc1)C(N)=O)[C@@H](C)O)C(C)C)[C@@H](C)O
notes: also called compound 98
B4: N^ε1-[2-[2-[2-[[2-[2-[2-[[(4S)-4-carboxy-4-(19-carboxynonadecanoylamino)butanoyl]amino]ethoxy]ethoxy]acetyl]amino]ethoxy]ethoxy]acetyl]-[Arg17,Pro21,Pro27,Pro31 … (peptide)
peptide: K([AEEA-AEEA-γGlu-C20 diacid])CNTATCATQRLANFLRHSSPNFGAIPSSTPVGSNTY-NH2
modifications: disulfide 2-7; N-terminus assumed
SMILES: CC[C@H](C)[C@H](NC(=O)[C@H](C)NC(=O)CNC(=O)[C@H](Cc1ccccc1)NC(=O)[C@H](CC(N)=O)NC(=O)[C@@H]1CCCN1C(=O)[C@H](CO)NC(=O)[C@H](CO)NC(=O)[C@H](Cc1c[nH]cn1)NC(=O)[C@H](CCCNC(=N)N)NC(=O)[C@H](CC(C)C)NC(=O)[C@H](Cc1ccccc1)NC(=O)[C@H](CC(N)=O)NC(=O)[C@H](C)NC(=O)[C@H](CC(C)C)NC(=O)[C@H](CCCNC(=N)N)NC(=O)[C@H](CCC(N)=O)NC(=O)[C@@H](NC(=O)[C@H](C)NC(=O)[C@@H]1CSSC[C@H](NC(=O)[C@@H](N)CCCCNC(=O)COCCOCCNC(=O)COCCOCCNC(=O)CC[C@H](NC(=O)CCCCCCCCCCCCCCCCCCC(=O)O)C(=O)O)C(=O)N[C@@H](CC(N)=O)C(=O)N[C@@H]([C@@H](C)O)C(=O)N[C@@H](C)C(=O)N[C@@H]([C@@H](C)O)C(=O)N1)[C@@H](C)O)C(=O)N1CCC[C@H]1C(=O)N[C@@H](CO)C(=O)N[C@@H](CO)C(=O)N[C@H](C(=O)N1CCC[C@H]1C(=O)N[C@H](C(=O)NCC(=O)N[C@@H](CO)C(=O)N[C@@H](CC(N)=O)C(=O)N[C@H](C(=O)N[C@@H](Cc1ccc(O)cc1)C(N)=O)[C@@H](C)O)C(C)C)[C@@H](C)O
notes: also called compound 96
B5: N^ε1-[2-[2-[2-(19-carboxynonadecanoylamino)ethoxy]ethoxy]acetyl]-[Arg17,Pro21,Pro27,His34]-h-amylin (peptide)
peptide: K([AEEA-C20 diacid])CNTATCATQRLANFLRHSSPNFGAIPSSTNVGHNTY-NH2
modifications: disulfide 2-7; N-terminus assumed
SMILES: CC[C@H](C)[C@H](NC(=O)[C@H](C)NC(=O)CNC(=O)[C@H](Cc1ccccc1)NC(=O)[C@H](CC(N)=O)NC(=O)[C@@H]1CCCN1C(=O)[C@H](CO)NC(=O)[C@H](CO)NC(=O)[C@H](Cc1c[nH]cn1)NC(=O)[C@H](CCCNC(=N)N)NC(=O)[C@H](CC(C)C)NC(=O)[C@H](Cc1ccccc1)NC(=O)[C@H](CC(N)=O)NC(=O)[C@H](C)NC(=O)[C@H](CC(C)C)NC(=O)[C@H](CCCNC(=N)N)NC(=O)[C@H](CCC(N)=O)NC(=O)[C@@H](NC(=O)[C@H](C)NC(=O)[C@@H]1CSSC[C@H](NC(=O)[C@@H](N)CCCCNC(=O)COCCOCCNC(=O)CCCCCCCCCCCCCCCCCCC(=O)O)C(=O)N[C@@H](CC(N)=O)C(=O)N[C@@H]([C@@H](C)O)C(=O)N[C@@H](C)C(=O)N[C@@H]([C@@H](C)O)C(=O)N1)[C@@H](C)O)C(=O)N1CCC[C@H]1C(=O)N[C@@H](CO)C(=O)N[C@@H](CO)C(=O)N[C@H](C(=O)N[C@@H](CC(N)=O)C(=O)N[C@H](C(=O)NCC(=O)N[C@@H](Cc1c[nH]cn1)C(=O)N[C@@H](CC(N)=O)C(=O)N[C@H](C(=O)N[C@@H](Cc1ccc(O)cc1)C(N)=O)[C@@H](C)O)C(C)C)[C@@H](C)O
notes: also called compound 91
B6: N^ε1-[2-[2-[2-[[2-[2-[2-[[(4S)-4-carboxy-4-(19-carboxynonadecanoylamino)butanoyl]amino]ethoxy]ethoxy]acetyl]amino]ethoxy]ethoxy]acetyl]-[Arg17,Pro21,Pro27,His34 … (peptide)
peptide: K([AEEA-AEEA-γGlu-C20 diacid])CNTATCATQRLANFLRHSSPNFGAIPSSTNVGHNTY-NH2
modifications: disulfide 2-7; N-terminus assumed
SMILES: CC[C@H](C)[C@H](NC(=O)[C@H](C)NC(=O)CNC(=O)[C@H](Cc1ccccc1)NC(=O)[C@H](CC(N)=O)NC(=O)[C@@H]1CCCN1C(=O)[C@H](CO)NC(=O)[C@H](CO)NC(=O)[C@H](Cc1c[nH]cn1)NC(=O)[C@H](CCCNC(=N)N)NC(=O)[C@H](CC(C)C)NC(=O)[C@H](Cc1ccccc1)NC(=O)[C@H](CC(N)=O)NC(=O)[C@H](C)NC(=O)[C@H](CC(C)C)NC(=O)[C@H](CCCNC(=N)N)NC(=O)[C@H](CCC(N)=O)NC(=O)[C@@H](NC(=O)[C@H](C)NC(=O)[C@@H]1CSSC[C@H](NC(=O)[C@@H](N)CCCCNC(=O)COCCOCCNC(=O)COCCOCCNC(=O)CC[C@H](NC(=O)CCCCCCCCCCCCCCCCCCC(=O)O)C(=O)O)C(=O)N[C@@H](CC(N)=O)C(=O)N[C@@H]([C@@H](C)O)C(=O)N[C@@H](C)C(=O)N[C@@H]([C@@H](C)O)C(=O)N1)[C@@H](C)O)C(=O)N1CCC[C@H]1C(=O)N[C@@H](CO)C(=O)N[C@@H](CO)C(=O)N[C@H](C(=O)N[C@@H](CC(N)=O)C(=O)N[C@H](C(=O)NCC(=O)N[C@@H](Cc1c[nH]cn1)C(=O)N[C@@H](CC(N)=O)C(=O)N[C@H](C(=O)N[C@@H](Cc1ccc(O)cc1)C(N)=O)[C@@H](C)O)C(C)C)[C@@H](C)O
notes: also called compound 97

These binders were tested against T1, human calcitonin receptor (assay: cell-based or functional assay).

Compared with B1, B2 is 17-fold higher in “hCTR funct. EC50” value: 1.25 nM for the first, 21.5 nM for the second.

Going from B3 to B4, the “hCTR funct. EC50” value rises from 1.63 nM to 3.8 nM (2.3-fold).

Compared with B5, B6 is 8-fold higher in “hCTR funct. EC50” value: 1.48 nM for the first, 11.8 nM for the second.
